Test results published in the supplement of paper PMC10567573.

B1: SFRS1 (parent)
chain: YSPRRSRGSPRYSPRHSRSRSRT

Variants of: B1
Experiment: protein stability index of a GFP-peptide fusion (GPS, HEK-293T) (PSI 1-6); higher = more stable
Conditions: c terminus: native
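Note: lentivirally expressed fusions sorted by FACS into six bins by GFP to DsRed ratio, PSI derived from sequencing read proportions per bin multiplied by bin number.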

Point of comparison: YSPRRSTGSPRYSPRHSRSRSRT [R7T], protein stability index 3.13. Against it:
- YSPRRRRGSPRYSPRHSRSRSRT [S6R] — higher, 4.01
- YSPRRSRNSPRYSPRHSRSRSRT [G8N] — higher, 3.7
- YSPRRSRTSPRYSPRHSRSRSRT [G8T] — higher, 3.79
- YSPRRSRHSPRYSPRHSRSRSRT [G8H] — higher, 3.55
- YSPRRSRFSPRYSPRHSRSRSRT [G8F] — lower, 2.13
- YSPRRSRSSPRYSPRHSRSRSRT [G8S] — higher, 4.32
- YSPRRSRQSPRYSPRHSRSRSRT [G8Q] — higher, 3.53
- YSPRRSRDSPRYSPRHSRSRSRT [G8D] — higher, 3.45
- YSPRRSRCSPRYSPRHSRSRSRT [G8C] — lower, 2.98
- YSPRRSRKSPRYSPRHSRSRSRT [G8K] — higher, 3.98
- YSPRRSRRSPRYSPRHSRSRSRT [G8R] — higher, 4.58
- YSPRRSRYSPRYSPRHSRSRSRT [G8Y] — lower, 3.05
- YSPRRSRESPRYSPRHSRSRSRT [G8E] — higher, 3.44
- YSPRRSRWSPRYSPRHSRSRSRT [G8W] — lower, 2.25
- YSPRRSRVSPRYSPRHSRSRSRT [G8V] — higher, 3.31
- YSPRRSRMSPRYSPRHSRSRSRT [G8M] — higher, 3.19
- YSPRRSRLSPRYSPRHSRSRSRT [G8L] — lower, 3
- YSPRRSRASPRYSPRHSRSRSRT [G8A] — higher, 4.22
- YSPRRSRISPRYSPRHSRSRSRT [G8I] — higher, 3.46
- YSPRRSRPSPRYSPRHSRSRSRT [G8P] — higher, 3.5
- YSPRRSPGSPRYSPRHSRSRSRT [R7P] — lower, 2.91
- YSPRRSSGSPRYSPRHSRSRSRT [R7S] — higher, 3.4
- YSPRRSMGSPRYSPRHSRSRSRT [R7M] — lower, 2.47
- YSPRRSIGSPRYSPRHSRSRSRT [R7I] — lower, 1.66
- YSPRRSLGSPRYSPRHSRSRSRT [R7L] — lower, 2.03
- YSPRRSHGSPRYSPRHSRSRSRT [R7H] — lower, 2.61
- YSPRRSQGSPRYSPRHSRSRSRT [R7Q] — higher, 3.54
- YSPRRSNGSPRYSPRHSRSRSRT [R7N] — lower, 2.92
- YSPRRSEGSPRYSPRHSRSRSRT [R7E] — lower, 2.15
- YSPRRSVGSPRYSPRHSRSRSRT [R7V] — lower, 2.24
- YSPRRSWGSPRYSPRHSRSRSRT [R7W] — lower, 1.95
- YSPRRSCGSPRYSPRHSRSRSRT [R7C] — lower, 1.95
- YSPRRSKGSPRYSPRHSRSRSRT [R7K] — higher, 3.77
- YSPRRSYGSPRYSPRHSRSRSRT [R7Y] — higher, 3.38
- YSPRRSDGSPRYSPRHSRSRSRT [R7D] — higher, 3.22
- YSPRRSGGSPRYSPRHSRSRSRT [R7G] — lower, 2.47
- YSPRRSFGSPRYSPRHSRSRSRT [R7F] — lower, 2.43
- YSPRRSAGSPRYSPRHSRSRSRT [R7A] — lower, 2.97
- YSPRRSRGLPRYSPRHSRSRSRT [S9L] — higher, 3.38
- YSPRRSRGVPRYSPRHSRSRSRT [S9V] — higher, 3.8
- YSPRRSRGRPRYSPRHSRSRSRT [S9R] — higher, 4.37
- YSPRRSRGNPRYSPRHSRSRSRT [S9N] — higher, 4.23
- YSPRRSRGYPRYSPRHSRSRSRT [S9Y] — higher, 3.43
- YSPRRSRGPPRYSPRHSRSRSRT [S9P] — higher, 3.86
- YSPRRSRGWPRYSPRHSRSRSRT [S9W] — lower, 2.29
- YSPRRSRGTPRYSPRHSRSRSRT [S9T] — higher, 3.74
- YSPRRSRGIPRYSPRHSRSRSRT [S9I] — lower, 3.1
- YSPRRSRGGPRYSPRHSRSRSRT [S9G] — higher, 4.24
- YSPRRSRGDPRYSPRHSRSRSRT [S9D] — higher, 3.99
- YSPRRSRGEPRYSPRHSRSRSRT [S9E] — higher, 3.71
- YSPRRSRGHPRYSPRHSRSRSRT [S9H] — higher, 3.16
- YSPRRSRGQPRYSPRHSRSRSRT [S9Q] — higher, 4.24
- YSPRRSRGKPRYSPRHSRSRSRT [S9K] — higher, 3.83
- YSPRRSRGFPRYSPRHSRSRSRT [S9F] — higher, 3.35
- YSPRRSRGAPRYSPRHSRSRSRT [S9A] — higher, 3.94
- YSPRRSRGMPRYSPRHSRSRSRT [S9M] — lower, 3.07
- YSPRRSRGCPRYSPRHSRSRSRT [S9C] — lower, 1.83
- YSPRRSRGSPRYSPRCSRSRSRT [H16C] — higher, 3.96
- YSPRRSRGSPRYSPRASRSRSRT [H16A] — higher, 4.81
- YSPRRSRGSPRYSPLHSRSRSRT [R15L] — lower, 3
- YSPRRSRGSPRYSPCHSRSRSRT [R15C] — lower, 2.64
- YSPRRSRGSPRYSPQHSRSRSRT [R15Q] — higher, 3.39
- YSPRRSRGSPRYSPHHSRSRSRT [R15H] — higher, 4.39
- YSPRRSRGSPRYSPKHSRSRSRT [R15K] — higher, 3.98
- YSPRRSRGSPRYSPIHSRSRSRT [R15I] — lower, 3.05
- YSPRRSRGSPRYSPEHSRSRSRT [R15E] — higher, 3.56
- YSPRRSRGSPRYSPPHSRSRSRT [R15P] — lower, 2.12
- YSPRRSRGSPRYSPVHSRSRSRT [R15V] — lower, 2.65
- YSPRRSRGSPRYSPAHSRSRSRT [R15A] — higher, 3.36
- YSPRRSRGSPRYSPNHSRSRSRT [R15N] — higher, 3.34
- YSPRRSRGSPRYSPTHSRSRSRT [R15T] — lower, 2.58
- YSPRRSRGSPRYSPGHSRSRSRT [R15G] — higher, 3.9
- YSPRRSRGSPRYSPYHSRSRSRT [R15Y] — lower, 3.06
- YSPRRSRGSPRYSPFHSRSRSRT [R15F] — lower, 2.17
- YSPRRSRGSPRYSPSHSRSRSRT [R15S] — higher, 3.82
- YSPRRSRGSPRYSPDHSRSRSRT [R15D] — higher, 3.16
- YSPRRSRGSPRYSPMHSRSRSRT [R15M] — higher, 3.48
- YSPRRSRGSTRYSPRHSRSRSRT [P10T] — higher, 4.51
- YSPRRSRGSWRYSPRHSRSRSRT [P10W] — higher, 3.4
- YSPRRSRGSRRYSPRHSRSRSRT [P10R] — higher, 4.2
- YSPRRSRGSVRYSPRHSRSRSRT [P10V] — higher, 3.69
- YSPRRSRGSDRYSPRHSRSRSRT [P10D] — higher, 4.25
- YSPRRSRGSMRYSPRHSRSRSRT [P10M] — higher, 3.73
- YSPRRSRGSKRYSPRHSRSRSRT [P10K] — higher, 4.4
- YSPRRSRGSARYSPRHSRSRSRT [P10A] — higher, 4
- YSPRRSRGSYRYSPRHSRSRSRT [P10Y] — higher, 3.67
- YSPRRSRGSSRYSPRHSRSRSRT [P10S] — higher, 4.35
- YSPRRSRGSIRYSPRHSRSRSRT [P10I] — higher, 3.41
- YSPRRSRGSGRYSPRHSRSRSRT [P10G] — higher, 3.37
- YSPRRSRGSCRYSPRHSRSRSRT [P10C] — higher, 3.45
- YSPRRSRGSFRYSPRHSRSRSRT [P10F] — lower, 3.07
- YSPRRSRGSNRYSPRHSRSRSRT [P10N] — higher, 4.31
- YSPRRSRGSQRYSPRHSRSRSRT [P10Q] — lower, 3
- YSPRRSRGSERYSPRHSRSRSRT [P10E] — higher, 3.6
- YSPRRSRGSLRYSPRHSRSRSRT [P10L] — higher, 3.61
- YSPRRSRGSHRYSPRHSRSRSRT [P10H] — higher, 4.38
